In publication PMC2133975:
Each block holds one molecule with its values, some of them ahead of it.

Key:
[1] = molecular target: axonin-1, recombinant, expressed on the surface of COS-7 cells (chicken) (UniProt P28685); test: binding of protein-conjugated fluorescent microspheres
[2] = molecular target: NgCAM, recombinant, expressed on the surface of COS-7 cells (chicken); test: as above

percent of expressing cells that bound Covaspheres [1]: 15%
percent of expressing cells that bound Covaspheres [2]: 61%
Molecule: NgCAM purified from chicken brain membranes, conjugated to Covaspheres (from UniProt Q03696 21-1266) (natural protein)

percent of expressing cells that bound Covaspheres [2]: 53%
B1: axonin-1 purified from the ocular vitreous fluid of chicken embryos, conjugated to Covaspheres (natural protein)
chain: QSGMRSYGPVFEEQPAHTLFPEGSAEEKVTLTCRARANPPATYRWKMNGTELKMGPDSRYRLVAGDLVISNPVKAKDAGSYQCVATNARGTVVSREASLRFGFLQEFSAEERDPVKITEGWGVMFTCSPPPHYPALSYRWLLNEFPNFIPADGRRFVSQTTGNLYIAKTEASDLGNYSCFATSHIDFITKSVFSKFSQLSLAAEDARQYAPSIKAKFPADTYALTGQMVTLECFAFGNPVPQIKWRKLDGSQTSKWLSSEPLLHIQNVDFEDEGTYECEAENIKGRDTYQGRIIIHAQPDWLDVITDTEADIGSDLRWSCVASGKPRPAVRWLRDGQPLASQNRIEVSGGELRFSKLVLEDSGMYQCVAENKHGTVYASAELTVQALAPDFRLNPVKRLIPAARSGKVIIPCQPRAAPKATVLWTKGTELLTNSSRVTITADGTLILQNISKSDEGKYTCFAENFMGKANSTGILSVRDATKITLAPSSADINVGENLTLQCHASHDPTMDLTFTWSLDDFPIDLDKSEGHYRRASVKEAVGDLAIVNAQLKHSGRYTCTAQTVVDSTSESATLTVRGPPGPPGGVVVRDIGDTTVQLSWSRGFDNHSPIARYSIEARTLLSNKWKQMRTNPVNIEGNAETAQVVNLIPWMDYEFRVLASNILGVGEPSLPSSKIRTKEAAPTVAPSGLGGGGGAPNELIINWTPTLRDYQNGDGFGYILSFRKKGTQGWLTARVPHAESLHYVYRNESIGPYTPFEVKIKAYNRKGEGPESLTAIVYSAEEEPKVAPFRVTAKAVLSSEMDVSWEPVEQGDMTGVLLGYEIRYWKDGDKEEAADRVRTAGLVTSAHVTGLNPNTKYHVSVRAYNRAGAGPPSPSTNITTTKPPPRRPPGNISWTLTGSTVTIKWDPVVAQADESAVTGYKMLYRQDSHSAPTLYLASKSRIDIPVPEDFTHAFVQIRVTGPGGDGTPAEVHIVRNSGTSMMVEDSVTRPVPHAAIITTNSLAMVALIRYLEL
